Target: the molecule itself
Experiment: SEC; 24 mL Superdex-200, 150 mM NaCl, 50 mM Tris-HCl pH 8.0; MW estimated from a linear fit of MW standards

B1: 6×His-PqsE (wild type, P. aeruginosa) (enzyme)
chain: MLRLSAPGQLDDDLCLLGDVQVPVFLLRLGEASWALVEGGISRDAELVWADLCRWVADPSQVHYWLITHKHYDHCGLLPYLCPRLPNVQVLASERTCQAWKSESAVRVVERLNRQLLRAEQRLPEACAWDALPVRAVADGEWLELGPRHRLQVIEAHGHSDDHVVFYDVRRRRLFCGDALGEFDEAEGVWRPLVFDDMEAYLESLERLQRLPTLLQLIPGHGGLLRGRLAADGAESAYTECLRLCRRLLWRQSMGESLDELSEELHRAWGGQSVDFLPGELHLGSMRRMLEILSRQALPLD
notes: also called WT PqsE
- stoichiometry N: 2
